From patent US20240325562A1, “INTERNALIZING BINDING MOLECULES” (LinXis B.V., priority 2020, published 2024)

Assays:
[1] = test system: BDL rats (portal hypertension); assay: Portal pressure and mean arterial pressure in BDL and SHAM rats; format: in vivo, Sprague-Dawley rats; details: 5 mg/kg i.v.
Source text: To evaluate in vivo functionality, 13F11-13E8-ABD was conjugated to a Y27632-maleimide modified functional moiety (1e) (the test conjugate) as outlined in example 10.2. To provide a comparator, a similar amount of 13F11-13E8-ABD was conjugated to N-ethylmaleimide in a parallel and similar preparation (the mock conjugate).
To establish animals displaying portal hypertension (Klein et al, Fibrosis: Methods and Protocols. Methods in Molecular Biology. 2017 (1627): 91-122.), Sprague-Dawley rats were subjected to bile duct ligation (BDL) through median laparotomy under ketamine/xylazine-induced anaesthesia i.p. (BDL rats). To provide healthy controls, a second cohort of rats was subjected to the same surgical procedure except for actual ligation of the bile duct (SHAM rats). Surgery was followed-up with pain control medication (carprofen s.c.). Approximately five weeks after surgery, ketamine/xylazine anesthetized rats were subjected to median laparotomy, after which one catheter was inserted through an ileocecal vein to the portal vein, and one catheter was inserted into the femoral artery. The catheters were connected to pressure recording equipment, for assessment of portal pressure and mean arterial pressure, respectively.
(§1) After catheterization and hemodynamic stabilization, rats were dosed with 5 mg/kg test conjugate or mock conjugate i.v. through the lateral tail vein and pressures were monitored continuously (example 15.1.). One hour after dosing, animals were sacrificed after which tissues were isolated for ex vivo analysis (example 15.2.).

IGF2R = target: T1, IGF2R (Rattus norvegicus, UniProt G3V824); assay: In situ detection of infused test conjugate in liver sections; format: in vivo; details: for detection of conjugate in liver: one hour after 5 mg/kg i.v., anti-VHH antiserum
T1 construct: from tissue; host or cells: cryo-sections of rat tissues (liver, kidney, spleen, heart, ileum, brain); Sprague-Dawley BDL and SHAM rats
Description: as §1
After isolation, livers obtained from test conjugate-infused BDL and SHAM rats were fixated with paraformaldehyde, soaked in 30% (w/v) sucrose in PBS, and sectioned using cryo-microtome.
To detect the test conjugate in situ, tissue sections were stained with a rabbit polyclonal anti-VHH antiserum recognizing the 13F11-13E8 moiety of the conjugate, followed by an anti-rabbit antibody conjugated to the fluorophore Alexa-488 for visualization by confocal fluorescence microscopy (cf. example 14).

hIGF2R-ECD = target: T2, hIGF2R-ECD (Homo sapiens, UniProt P11717); assay: Competition assay with 13F11-A647 as reporter VHH on immobilized hIGF2R-ECD; format: binding; details: for competition with reporter VHH 13F11-A647: 10 nM 13F11-A647, 250 nM unconjugated competitor VHH; for less fluorescence intensity (decrease in binding of labelled 13F11): 10 nM labelled 13F11, 250 nM unlabelled competitor VHH
T2 construct: immobilized recombinant human extracellular domain of IGF2R (hIGF2R-ECD) was used
Description: With the term “compete” is meant that in a competition assay, such as for instance described in Example 6 of the present invention, the addition of a binding molecule induces a significant decrease in binding of a given VHH, i.e., the VHH to which the competing is determined. “Significant” in this respect is preferably a decrease of >5%, preferably >10% when 250 nM of a binding molecule is added to 10 nM of a fluorescence labelled VHH in an ELISA. […] The same test conditions and threshold apply to a binding molecule directed to PDGFRB when determining whether a binding molecule competes with a given VHH.
(§2) Biparatopic VHH constructs contain two VHH which bind to a different epitope, i.e. which are non-competitive binders. To identify (a) pair(s) of non-competitive binders, competition assays were performed. In the example shown, an Alexa fluor-conjugate of the high affine VHH 13F11 was used as the reporter VHH (13F11-A647, see example 10.2). In the assay, a non-saturating amount (10 nM) of 13F11-A647 was incubated with immobilized hIGF2R-ECD in the presence or absence of 250 nM unconjugated competitor VHH to allow competition to take place.

[2] = test system: A549 cells that endogenously express hIGF2R; assay: Internalization by fluorescence microscopy after acid wash, A549 cells; format: cell-based, human; details: 25 nM Alexa fluor 647 conjugate
Description: (§3) First, Alexa fluor 647-conjugates of the VHH 13F11 and the biparatopic VHH construct […] were added to A549 cells that endogenously express hIGF2R (FIG. 16A), NIH 3T3 2.2 cells that were transiently transfected with hIGF2R (FIG. 16B), or mock transfected NIH 3T3 2.2 cells (as a negative control). For this, the cells were incubated with 25 nM of the VHH or the VHH construct. Before fluorescent microscopy readout, to ensure that only signal of internalized VHH or mouse anti-IGF2R was present, an acid wash (0.2M glycine-HCl, 150 mM NaCl, pH 2.3) was used to remove VHH or mouse anti-IGF2R bound to the target receptors on the cell surface. The efficiency of the acid wash procedure was verified by incubating the hIGF2R transfected NIH 3T3 2.2 cells with 13F11-13E8-A647 on ice and subsequently treating these cells with an acid wash while remaining on ice to prevent internalization (FIG. 16D). […] Summarizing, biparatopic 13F11-13E8 clearly internalizes in cells expressing hIGF2R on the cell surface.

[3] = test system: NIH 3T3 2.2 cells that were transiently transfected with hIGF2R; assay: Internalization by fluorescence microscopy after acid wash, hIGF2R-transfected NIH 3T3 2.2 cells; format: cell-based, human; details: 25 nM Alexa fluor 647 conjugate
Description: as §3

[4] = test system: mock transfected NIH 3T3 2.2 cells; assay: Internalization by fluorescence microscopy after acid wash, mock transfected cells; format: cell-based; details: 25 nM Alexa fluor 647 conjugate, negative control cells
Description: as §3

hPDGFRB = hPDGFRB (Homo sapiens, UniProt P09619); assay: Competition assays of PDGFRB VHHs on hPDGFRB; format: binding; details: VHHs from libraries 1 and 2; four main groups
Description: as §2
Similar as to in example 6.1, competition assays were performed to identify unique hPDGFRB- or rPDGFRB binders. Across 10 PDGFRB-binding VHHs obtained from libraries 1 and 2 (e.g. the VHH raised against hPDGFRB), four main groups were identified being first SP01P, SP02P, SP07P and SP13P, second SP05P, SP08P and SP10P, third SP12P and SP20P and finally SP14P. All VHH within each of the first three groups mutually competed.
To evaluate whether the obtained VHHs would qualify as building blocks for multivalent VHH constructs that bind hPDGFRB as well as rPDGFRB (e.g. ‘species cross-reactive’ VHH constructs), competition assays were performed using the most promising VHHs SP02 (raised against hPDGFRB) and SP26P (raised against rPDGFRB).

[5] = BDL rats, monitored for one hour

T1 sequence (G3V824 36-2481): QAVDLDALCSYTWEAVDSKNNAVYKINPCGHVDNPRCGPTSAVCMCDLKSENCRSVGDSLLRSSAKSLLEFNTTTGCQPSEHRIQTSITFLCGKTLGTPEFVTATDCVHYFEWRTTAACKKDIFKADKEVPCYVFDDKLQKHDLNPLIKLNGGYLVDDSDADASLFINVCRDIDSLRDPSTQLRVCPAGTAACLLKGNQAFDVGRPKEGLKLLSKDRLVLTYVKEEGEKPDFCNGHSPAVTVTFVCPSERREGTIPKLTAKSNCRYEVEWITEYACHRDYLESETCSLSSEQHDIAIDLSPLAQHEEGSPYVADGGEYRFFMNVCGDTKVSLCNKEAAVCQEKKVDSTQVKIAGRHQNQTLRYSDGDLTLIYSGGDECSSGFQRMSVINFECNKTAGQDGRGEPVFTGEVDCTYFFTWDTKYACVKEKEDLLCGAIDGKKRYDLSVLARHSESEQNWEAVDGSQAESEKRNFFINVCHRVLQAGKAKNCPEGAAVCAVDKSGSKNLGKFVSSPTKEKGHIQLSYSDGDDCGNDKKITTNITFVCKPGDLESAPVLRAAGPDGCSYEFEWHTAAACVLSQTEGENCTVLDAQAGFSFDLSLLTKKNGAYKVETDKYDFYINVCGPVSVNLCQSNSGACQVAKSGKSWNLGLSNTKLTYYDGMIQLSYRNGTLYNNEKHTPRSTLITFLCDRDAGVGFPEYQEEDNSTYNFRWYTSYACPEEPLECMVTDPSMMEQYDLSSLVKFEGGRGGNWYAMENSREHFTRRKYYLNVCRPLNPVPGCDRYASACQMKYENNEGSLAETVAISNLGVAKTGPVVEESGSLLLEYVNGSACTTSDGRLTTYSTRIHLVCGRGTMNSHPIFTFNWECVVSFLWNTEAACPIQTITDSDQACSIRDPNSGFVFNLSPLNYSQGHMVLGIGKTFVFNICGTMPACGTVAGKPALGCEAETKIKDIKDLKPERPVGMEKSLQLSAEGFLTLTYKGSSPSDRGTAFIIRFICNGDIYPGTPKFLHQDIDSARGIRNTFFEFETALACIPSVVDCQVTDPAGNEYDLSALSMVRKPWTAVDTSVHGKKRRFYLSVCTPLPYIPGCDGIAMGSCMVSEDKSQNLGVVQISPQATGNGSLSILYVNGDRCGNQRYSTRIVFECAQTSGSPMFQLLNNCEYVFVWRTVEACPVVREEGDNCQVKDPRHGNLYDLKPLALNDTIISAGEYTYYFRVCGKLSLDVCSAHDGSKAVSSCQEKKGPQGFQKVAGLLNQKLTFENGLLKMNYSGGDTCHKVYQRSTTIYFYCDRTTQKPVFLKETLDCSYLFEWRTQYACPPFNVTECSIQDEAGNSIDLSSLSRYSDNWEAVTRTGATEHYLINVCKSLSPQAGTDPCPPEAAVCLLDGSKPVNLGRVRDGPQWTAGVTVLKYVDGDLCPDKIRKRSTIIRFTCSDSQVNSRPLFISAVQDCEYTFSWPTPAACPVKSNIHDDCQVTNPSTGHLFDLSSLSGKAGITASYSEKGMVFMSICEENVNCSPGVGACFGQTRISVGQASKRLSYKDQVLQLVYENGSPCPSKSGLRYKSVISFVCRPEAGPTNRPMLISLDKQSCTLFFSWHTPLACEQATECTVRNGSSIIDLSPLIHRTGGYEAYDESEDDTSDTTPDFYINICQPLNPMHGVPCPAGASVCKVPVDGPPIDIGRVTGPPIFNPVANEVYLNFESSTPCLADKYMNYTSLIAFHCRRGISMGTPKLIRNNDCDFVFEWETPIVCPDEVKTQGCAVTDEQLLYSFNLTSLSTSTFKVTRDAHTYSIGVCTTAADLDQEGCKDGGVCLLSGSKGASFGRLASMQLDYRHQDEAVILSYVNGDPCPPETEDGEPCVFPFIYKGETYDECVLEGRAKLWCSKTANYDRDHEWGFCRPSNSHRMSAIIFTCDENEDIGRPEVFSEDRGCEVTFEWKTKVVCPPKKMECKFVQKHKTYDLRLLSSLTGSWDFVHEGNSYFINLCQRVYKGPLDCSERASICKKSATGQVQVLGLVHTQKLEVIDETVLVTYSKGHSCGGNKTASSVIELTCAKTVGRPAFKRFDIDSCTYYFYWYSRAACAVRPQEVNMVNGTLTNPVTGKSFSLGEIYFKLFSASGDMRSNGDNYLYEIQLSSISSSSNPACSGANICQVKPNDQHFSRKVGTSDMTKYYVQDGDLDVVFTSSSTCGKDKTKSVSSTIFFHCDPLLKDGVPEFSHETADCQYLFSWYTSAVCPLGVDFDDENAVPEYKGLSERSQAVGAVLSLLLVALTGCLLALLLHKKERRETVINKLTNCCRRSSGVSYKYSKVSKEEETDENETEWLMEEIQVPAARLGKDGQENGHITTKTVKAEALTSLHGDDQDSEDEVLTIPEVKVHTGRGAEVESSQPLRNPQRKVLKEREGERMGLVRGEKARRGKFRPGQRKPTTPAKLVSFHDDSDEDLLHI
Chain of hPDGFRB (P09619 33-532 limits assumed): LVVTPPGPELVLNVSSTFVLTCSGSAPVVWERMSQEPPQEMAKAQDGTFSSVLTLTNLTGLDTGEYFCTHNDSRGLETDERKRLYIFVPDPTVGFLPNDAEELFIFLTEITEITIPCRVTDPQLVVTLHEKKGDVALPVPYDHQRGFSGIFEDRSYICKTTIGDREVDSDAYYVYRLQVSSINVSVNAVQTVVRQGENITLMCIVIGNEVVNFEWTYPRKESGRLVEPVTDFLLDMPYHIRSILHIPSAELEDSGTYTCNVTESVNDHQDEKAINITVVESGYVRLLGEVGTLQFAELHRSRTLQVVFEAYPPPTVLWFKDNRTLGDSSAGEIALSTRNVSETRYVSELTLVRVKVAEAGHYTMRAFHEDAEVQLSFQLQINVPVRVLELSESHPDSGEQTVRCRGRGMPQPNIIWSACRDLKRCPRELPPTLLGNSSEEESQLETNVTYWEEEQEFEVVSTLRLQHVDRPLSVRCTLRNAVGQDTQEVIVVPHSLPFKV

Row | Molecule | competition with reporter VHH 13F11-A647 (hIGF2R-ECD) | less fluorescence intensity (decrease in binding of labelled 13F11) (hIGF2R-ECD) | further results
1 | test conjugate: 13F11-13E8-ABD conjugated to a Y27632-maleimide modified functional moiety (1e) (conjugate, non-natural residues; left off: large carriers; small tags and cut ends) EVQLVESGGRLVQPGDSLRLSCAASGRTFSDNAMGWFRQAPGKERRFVAGISWAGGSTYYSDSVKGRFTISRDNAKNTVYLQMNSLKPEDTAVYYCAAGLRAWVQRMPKDYNYWGQGTQVTVSSGGGGSGGGGSGGGGSEVQLVESGGGLVQAGGSLRLSCAASRSISPMGWYRQAPGKQRELVAIMPSSGPPIYADSVQGRFTISRDNAKNTVYLQMNSLKPEDTAVYYCNVGGGYWGQGTQVTVSS |  |  | mean arterial pressure (MAP) [1, 5]: remained constant; portal pressure (PP) [1, 5]: gradual decrease of portal pressure; portal or arterial pressure ([1]; SHAM rats): neither the test conjugate nor the mock conjugate affected portal or arterial pressure; detection of conjugate in liver (IGF2R; BDL rats): detected in the liver of BDL rats; distribution in liver versus (tissue) distribution of IGF2R (IGF2R; BDL rats, second staining with 13F11-13E8-A647): overlapped; detection of conjugate in liver (IGF2R; SHAM rats): not in the liver of SHAM rats
2 | 13C11: VHH single domain antibody targeting IGF2R, SEQ ID NO: 297 (protein) VHH: EVQLVESGGGLVQAGGSLRLSCAASGLTFSSYTMAWYRQAPGKEREVVAAISSGDSIYHEGSVQGRFIISRDNAKNTVYLQMNSLKAEDTAVYYCRANGPGTYWGQGTQVTVSS | competed with 13F11 | substantially more decrease in fluorescence intensity | 
3 | 13G10: VHH single domain antibody targeting IGF2R, SEQ ID NO: 305 (protein) VHH: EVQLVESGGGLVQAGGSLRLSCAASGLTFSSYTMAWYRQAPGKEREVVAAISSGDSIYHEDSVQGRFIISRDNAKNTVYLQMNSLKAEDTAVYYCRANGPGTYWGQGTQVTVSS | competed with 13F11 | substantially more decrease in fluorescence intensity | 
4 | 13F11: VHH single domain antibody targeting IGF2R, SEQ ID NO: 273 (protein) VHH: EVQLVESGGRLVQPGDSLRLSCAASGRTFSDNAMGWFRQAPGKERRFVAGISWAGGSTYYSDSVKGRFTISRDNAKNTVYLQMNSLKPEDTAVYYCAAGLRAWVQRMPKDYNYWGQGTQVTVSS | competed with 13F11-A647 |  | internalization [2]: no internalization was observed; internalization [3]: internalized; internalization [4]: no internalization was observed
5 | SP20P: VHH single domain antibody targeting PDGFRB, SEQ ID NO: 113 (protein) VHH: EVQLVESGGGLVQAGGSLRLSCVISGRTSPTYPMGWFRQSPGNEREFVASINWSGGWRNYADSVKDRFTISRDDAKNTVYLQMNSLKPEDTAVYYCARGQYSSGTPVYAHEYAYWGQGTQVTVSS |  |  | epitope group (mutual competition) (hPDGFRB): third
6 | 13A8: VHH single domain antibody targeting IGF2R, SEQ ID NO: 257 (protein) VHH: EVQLVESGGGLVPAGGSLRLSCAASGRTFSNYAMGWFRQAPGKERKFVATISWSGGVTYYADSVKGRFTISRDNAKNTVYLLMNSLKPEDTAVYYCAAKRDSSSYDHRRYDYWGQGTQVTVSS | competed with 13F11 | substantially more decrease in fluorescence intensity | 
7 | 13E8: VHH single domain antibody targeting IGF2R, SEQ ID NO: 249 (protein) VHH: EVQLVESGGGLVQAGGSLRLSCAASRSISPMGWYRQAPGKQRELVAIMPSSGPPIYADSVQGRFTISRDNAKNTVYLQMNSLKPEDTAVYYCNVGGGYWGQGTQVTVSS | did not compete with 13F11 | less than 5% | 
8 | 13A12: VHH single domain antibody targeting IGF2R, SEQ ID NO: 289 (protein) VHH: EVQLVESGGGLVQAGGSLRLSCAASGIIFGANTVGWYRQVPGKERDVVASITSGDSTYYGDSVRGRFTISRDNAKNTMYLQMNSLKPEDTAIYYCRARTTDGSYWGQGTQVTVS | competed with 13F11 | substantially more decrease in fluorescence intensity | 
